Test: yeast display, Sf9 membrane polyspecificity reagent, FACS + sequencing; frameworks hold sequencing errors
Procedure, shortened: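 Nanobodies came from a synthetic yeast display library in Saccharomyces cerevisiae BJ5465, induced with galactose for 36–48 hours and stained for 1 hour at 4 °C with 10% biotinylated, detergent-solubilized Sf9 membrane reagent. Cells were enriched on streptavidin microbeads and then FACS-sorted, with low and high (top ~1%) gates set on anti-HA fluorescence for expression and streptavidin fluorescence for reagent binding. Each polyreactivity label reflects the gate a clone came from. Genes were amplified by colony PCR, sequenced by MiSeq 2 × 250 and filtered by CDR length.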
With “QVQLVESGGGLVQAGGSLRLTCAASGITFRAYVMGWYRQEPGKERELVAAINRRGGSTYYADSVKGRFTISRDNAKNTVYLQMNSLKPEDTAVYYCAAGLYSTGYTYDYWGQGTQVTVSS” the “polyreactivity (PSR sort gate)” value was “high polyreactivity”. With “QVQLVESGGGLVQAGGSLRLTCAASGLIFYRYAMGWYRQAPGKERELVATMSRSGGTYADSVKGRFTISRDNAKNTVYLQMNSLKPEDTAVYYCNARTLYAYITRDYWGQGTQVTVSS” the “polyreactivity (PSR sort gate)” value was “high polyreactivity”. In the case of “QVQLVESGGGLVQAGGSLRLTCAASGLTFDSNVMGWYRQAPGKERELVAAITASGGRTYYADSVKGRFTISRDNAKNTVYLQMNSLKPEDTAVYYCAADSRSAYDYWGQGSQVTVSS”, the “polyreactivity (PSR sort gate)” value is reported as “high polyreactivity”. In the case of “QVQLVESGGGLVQAGGSLRLTCAASGLTFGLYAMGWYRQAPGKERELVAAITRGDSTNYADSVKGRFTISRDNAKNTVYLQMNSLKPEDTAVYYFNAVRTYWWGYNQQYNYWGQGTQVTVSS”, the “polyreactivity (PSR sort gate)” value is reported as “high polyreactivity”. In the case of “QVQLVESGGGLVQAGGSLRLTCAASGLTFYFYTMGWYRQAPGKERELVAAIRSAGRTNYADSVKGRFTISRDNAKNTVYLQMNSLKPEDTAVYYCAAISPGYYRIVWYDYWGQGTQVTVSS”, the “polyreactivity (PSR sort gate)” value is reported as “high polyreactivity”. With “QVQLVESGGGLVQAGGSLRLTCAASGNTFTTNVMGWYRQAPGKERELVARISWSGTSTSYADSVKGRFTISRDNAKNTVYLQMNSLKPEDTAVYYCAVGGIVHIRSRAQQEYYYWGHGTQVTVSS” the “polyreactivity (PSR sort gate)” value was “high polyreactivity”. With “QVQLVESGGGLVQAGGSLRLTCAASGRIFPVYAMGWYRQAPGKERELVAAISGSGGSTYYADSVKGRFTISRDNAKKSVYLQMNSLKPEDTAVYYCAAVTTPRFSIGYEYWGQGTQVTVSS” the “polyreactivity (PSR sort gate)” value was “low polyreactivity”. In the case of “QVQLVESGGGLVQAGGSLRLTCAASGRIFRVNTMGWYRQAPGKERELVATINGRGGSTYYADSVKGRFTISRDNAKNTVYLQMNSLKPVDTSVYYCAARARTTRSATYDYWGQGTQGTVSS”, the “polyreactivity (PSR sort gate)” value is reported as “high polyreactivity”. For “QVQLVESGGGLVQAGGSLRLTCAASGRIFRYYAMGWYRQAPGKERELVATISRGGSTTYADSVKGRFTISRDNAKNTVYLQMNSLKPEDTAVYYCDARFGSTYDYWGQGTQVTVSS”, the “polyreactivity (PSR sort gate)” value was “low polyreactivity”. For “QVQLVESGGGLVQAGGSLRLTCAASGRIFSYYAMGWYRPAPGKERELVAAISSSGGSTYYADSVKGRFTISRDNAKNTVYLQMNSLKPEDTAVYDCRVYTRGEYYSWGQGTQVTVSS”, the “polyreactivity (PSR sort gate)” value was “high polyreactivity”. In the case of “QVQLVESGGGLVQAGGSLRLTCAASGRIFTTNAMGWYRQAPGKERELVAAITSGASTYADSVKGRVTISRDNAKNTGYLQMNSLKPEDTAVYAESTYNWYYYYWGQGTQVTVSS”, the “polyreactivity (PSR sort gate)” value is reported as “low polyreactivity”. With “QVQLVESGGGLVQAGGSLRLTCAASGRIFVPYVMGWFRQAPGKERELVAAISSSGGSTYYADSVKGRFTISRDNAKNTVYLQMNSLKPEDTAVYYCAKPYYFHEEDHWGQGTQVTVSS” the “polyreactivity (PSR sort gate)” value was “low polyreactivity”. With “QVQLVESGGGLVQAGGSLRLTCAASGRILGRNAMGWYRQAPGKEREFVAGISYSGTSTYYADSVKGRFTISRDNAKNTVYLQMNSLKPEDTAVYYCNVKNQVYRRYYYWGQGTQVTVSS” the “polyreactivity (PSR sort gate)” value was “high polyreactivity”. In the case of “QVQLVESGGGLVQAGGSLRLTCAASGRTFGVYAMGWYRQAPGKERELVADITSGGGTYYADSVKGRFTILRDNAKNTVYLQMNSLKPEDTAVYYCAARKWYYAYEYWGQGTQVTVSS”, the “polyreactivity (PSR sort gate)” value is reported as “high polyreactivity”. For “QVQLVESGGGLVQAGGSLRLTCAASGRTFRLYVMGWYRQAPGKERELVASISYGGGRTYYADSVKGRFTISRDNAKNTVYLQMNSLKPEDTAVYYCAARYYTYRLDMDYWGQGTQVTVSS”, the “polyreactivity (PSR sort gate)” value was “high polyreactivity”. With “QVQLVESGGGLVQAGGSLRLTCAASGRTFRTYAMGWYRQAPGKERELVAAITSGGNTYYADSVKGRFTISRDNAKNTVYLQMNSLKPEDTAVYYCAAVQYFKVSYWGQGTQVTVSS” the “polyreactivity (PSR sort gate)” value was “high polyreactivity”. In the case of “QVQLVESGGGLVQAGGSLRLTCAASGRTFYVNAMGWYRQAHGKERELVATISRGGSTHYADSVKGRFTISRDNAKYTVYLQLNSLKPEDTAVYYCAAPGRTSVYRYYYWGQGTQVTVSS”, the “polyreactivity (PSR sort gate)” value is reported as “high polyreactivity”.

Source: the nanobody polyreactivity screen of Harvey et al. (2022)
